Assays:
[1] = target: T1, Dimeric fibrinogen-like domain of monkey (Macca fascicularis) Ang-2 conjugated to human IgG1 (monkey (Macca fascicularis)); test: blocking ELISA, 16.67 nM antibody, coated hTie-2-mFc
T1 construct: also called Dimeric Monkey Ang-2FD; Monkey Ang-2FD-hFc
Protocol: (§1) Tie-2 is a natural receptor for Ang-2. Anti-Ang-2 antibodies were tested for their ability to block Ang-2 binding to human Tie-2 (hTie-2). hTie-2-mFc (a chimeric construct consisting of human Tie-2 conjugated to mouse IgG; SEQ ID NO:525) was coated onto 96-well plates at a concentration of 2 μg/ml and incubated overnight followed by washing four times in wash buffer (PBS with 0.05% Tween-20). The plate was then blocked with PBS (Irvine Scientific, Santa Ana, Calif.) containing 0.5% BSA (Sigma-Aldrich Corp., St. Louis, Mo.) for one hour at room temperature. In a separate plate, purified anti-Ang-2 antibodies, at a starting concentration of 50 nM, were serially diluted by a factor of three across the plate. […] The antibody/Ang-2FD-Fc mixture was then added to the plate containing hTie-2-mFc and incubated for one hour at room temperature.

[2] = target: T2, Dimeric fibrinogen-like domain of human Ang-2 conjugated to human IgG1 (human); test: as above
T2 construct: also called Dimeric Human Ang-2FD; Human Ang-2FD-hFc
Protocol: as §1

[3] = target: T3, Dimeric fibrinogen-like domain of mouse (Mus musculus) Ang-2 conjugated to human IgG1 (mouse (Mus musculus)); test: as above
T3 construct: also called Dimeric Mouse Ang-2FD; Mouse Ang-2FD-hFc
Protocol: as §1

[4] = target: T1, Dimeric fibrinogen-like domain of …; test: SPR, antibody captured, room temp
Protocol: (§2) Antibody was captured on a goat anti-mouse IgG polyclonal antibody surface, a goat anti-human κ polyclonal antibody (Southern Biotech, Birmingham, Ala.) surface or a goat anti-human IgG polyclonal antibody (Jackson Immuno Research Lab, West Grove, Pa.) surface created through direct amine coupling to a BIACORE™ CM5 sensor chip to form a captured antibody surface. […] Antigen-antibody binding and dissociation were monitored in real time at room temperature. Kinetic analysis was performed to calculate KD and half-life of antigen/antibody complex dissociation.

[5] = target: T2, Dimeric fibrinogen-like domain of human …; test: SPR, antibody captured, room temp
Protocol: as §2

[6] = target: T3, Dimeric fibrinogen-like domain of mouse …; test: SPR, antibody captured, room temp
Protocol: as §2

[7] = target: T4, Human Ang-2FD-hFc (human); test: ELISA, 16.67 nM antibody + 2 nM human Ang-2FD-hFc, on coated hTie-2-mFc (competitor)
T4 construct: Order of the pieces follows the name (Ang-2FD, then hFc); also called Dimeric Human Ang-2FD; human Ang-2FD protein conjugated to human IgG
Protocol: as §1

[8] = target: T5, Mouse Ang-2FD-hFc (mouse (Mus musculus)); test: ELISA, 16.67 nM antibody + 8 nM mouse Ang-2FD-hFc, on coated hTie-2-mFc (competitor)
T5 construct: Order of the pieces follows the name; also called Dimeric Mouse Ang-2FD
Protocol: as §1

| Binder | Percent Blocking of Ang-2FD Binding to Tie-2 [1] [%] | Percent Blocking of Ang-2FD Binding to Tie-2 [2] [%] | Percent Blocking of Ang-2FD Binding to Tie-2 [3] [%] | Kd [4] [nM] | T1/2 [4] [min] | Kd [5] [nM] | T1/2 [5] [min] | Kd [6] [nM] | T1/2 [6] [min] | Percent Blocking of Ang-2FD Binding to Tie-2 [7] [%] | Percent Blocking of Ang-2FD Binding to Tie-2 [8] [%] |
| --- | --- | --- | --- | --- | --- | --- | --- | --- | --- | --- | --- |
| H2M749N (antibody, V domains shown, Hybridoma-derived chimeric antibody, mouse constant domains; also called H1M749N; H1M749) VH: QVQLVESGGGVVQPGRSLRLSCAASGFTFSSYGMHWVRQAPGKGLEWVAVIWYDEFNKYYADSVKGRFTISRDNSKNTLYLQMNSLRAEDTAVYYCARERESGYSYGFDYWGQGTLVTVSS VL: EIVMTQSPATLSVSPGERATLSCRAGQSVSSNLAWYQQKPGQAPRLLIYGASTRATGIPARFSGSGSGTEFTLTISSLQSEDFAVYYCQQYNNWWTFGQGTKVEIK | 97.4 | 99.5 | 97.3 | 1.5 | 40.9 | 0.165 | 42.9 | 0.529 | 25.5 |  |  |
| H1H695P (antibody, V domains shown, Fully human antibody, human IgG1) VH: QVQLVESGGGVVQPGRSLRLSCAASGFTFSSYGMHWVRQAPGKGLEWVAVMWYDETNKYYADSVKGRFTISRDNSKNTLYLQMNSLRAEDTAVYYCARYSGYEDYYHGMDVWGQGTTVTVS VL: EIVMTQSPATPSVSPGERATLSCRASQSISSNLAWYQQKPGQAPRLLIYGASTRATGIPARFSGSGSGTEFTLTISSLQSEDFAVYYCQHYNNWITFGQGTRLEIK |  |  |  |  |  |  |  |  |  | 98.4 | 97.6 |
| H2M750N (antibody, V domains shown) VH: QVKLVESGGGVVQPGRSLRVSCAASGFTFSSYGMHWVRQAPGKGLEWLAIIWYDGDNKYYSDSVKGRFTISRDNSKNTLYLQMNSLRAEDTAEYYCVRDASIASRFLDYWGQGTLVTVSS VL: DIQMTQSPSSLSASIGDRVTITCRATQDINNYLAWFQQKPGKAPKSLIYATSNLQSGVPSKFSGSGSGTDYTLTISSLQPEDFSTYYCQQYHSYPLTFGGGTKVEIK | 97.4 | 99.4 | 53.7 | 1.47 | 23 | 0.362 | 32.2 |  |  |  |  |
| H1H685P (antibody, V domains shown, Fully human antibody, human IgG1; also called mAb1) VH: EVQLVESGGGLVQPGGSLRLSCAASGFTFSSYDIHWVRQATGKGLEWVSAIGPAGDTYYPGSVKGRFTISRENAKNSLYLQMNSLRAGDTAVYYCARGLITFGGLIAPFDYWGQGTLVTVSS VL: EIVLTQSPGTLSLSPGERATLSCRASQSVSSTYLAWYQQKPGQAPRLLIYGASSRATGIPDRFSGSGSGTDFTLTISRLEPEDFAVYYCQHYDNSQTFGQGTKVEIK |  |  |  |  |  |  |  |  |  |  | 97.1 |
| H2M744N (antibody, V domains shown) VH: QVQLVQSGVEVKKPGASVKVSCKTSGYTFSNNGFSWVRQAPGQGLEWLGWISGYNGNTNYAQKFQGRVTMTTDTSTSTAYMELRTLRSDDTAVYYCARDQDYSNFHWLDPWGQGTLVTVAS VL: DIQMTQSPSSVSASVGDRVIITCRASQGLSSWLAWYQQKPGTAPKLLIHSASSLQTGVPSRFSGSGSGTEFALTINSLQPEDFGTYYCQQANSFPLTFGGGTRVEIK | 95.5 | 99.5 | 98.4 | 0.5 | 282 | 0.0989 | 109 | 0.143 | 223 |  |  |
| H2M743N (antibody, V domains shown) VH: EVQLLESGGGLVQPGGSLRLSCAASGFTFRKYAMSWVRQAPGKGLEWVSVISVSGGNTYYADSVKGRFTISRDNSKNTLYLQLNSLRAEDTAVYYCAKDLTDIVLMVYVDYWGQGTLVTVSS VL: DIQMTQSPSSVSASVGDRVTITCRASQDIDRWLAWYQQKPGKAPKLLIYAASSLQSGVPSRFSGSGSGTDFTLTISTLQPEDFATYYCQQANSLPFTFGGGTKVEIK | 95.1 | 99.6 | 98.4 | 0.234 | 169 | 0.154 | 167 | 0.882 | 195 |  |  |
| H1H693P (antibody, V domains shown, Fully human antibody, human IgG1) VH: EVQLVESGGGLVQPGESLRLSCAASGFTFSSYAMSWVRQGPGKGLEWVSSISGSGGTTYYADSVEGRFTISRDNSKNTLYLHMNSLRAEDTAVYYCAKDFLDYSTYLAFDLWGQGTMVTVSS VL: DIQMTQSPSSVSASVGDRVTITCRASQGISSWLAWYQQKPGKAPKLLIYAASSLQSGVPSRFSGSGSGTDFTLTISSLQPEDFATYYCQQANSFPRTFGQGTKVEIK |  |  |  |  |  |  |  |  |  | 73.9 | 63.6 |
| H1M724N (antibody, V domains shown) VH: QVQLVESGGGVVQPGRSLRLSCAASGFTLSNYGMHWVRQAPGKGLEWVAVIWHDGSNTYYADSVKGRFTISRDNSKNTLYLQMNSLRAEDTAVYYCTREGLDFWSGYYPNWFDPWGQGTLVTVSS VL: DIQMTQSPSSLSASVGDRVTITCRASQGIRNDLGWYQQKPGKAPKRLIYAASNLQGGVPSRFSGSGSGTEFTLTISSLQPEDFAAYYCLQHNIYPLTFGGGTKVEIK | 95.2 | 99.5 | 96.6 | 0.73 | 25.7 | 0.179 | 42.7 | 0.694 | 16 |  |  |
| H1M732N (antibody, V domains shown) VH: EVQLVESGGGLVRPGGSLRLSCAASGFTFTNAWMSWVRQAPGKGLEWIGQIKSKTDGGTIDYAAPVKGRFTVSRDDSENTLFLQMNSLKTEDTAVYYCAGNWNYVDFDYWGQGTLVTVSS VL: DIQMTQSPSSLSASVGDRVTITCRASQDIRNDLGWYQQKPGKAPKRLIYAASSLQGGVPSRFSGSGSGTEFTLTISSLQPEDFATYYCLQHNSYPFTFGPGTKVDIK | 95.8 | 97.7 | 90.9 | 7.33 | 24.1 | 0.484 | 35.5 | 1.7 | 21.4 |  |  |
| H2M742N (antibody, V domains shown) VH: DVQLLESGGDLVQPGGSLRLSCEASGFTFRNYVMIWVRQAPGKGLEWVSGISNSGGTTHYTDSVKGRFTISRDNSKNTLYLQINSLRAEDTAVYYCAKGYLDTSLIEGNWFDPWGQGTLVTVSS VL: NIVMTQSPLSLPVTPGEPASISCRSSQSLLHSNGFNYLNWFLQKPGQSPQLLIYLGSNRASGVPDKFSGSGSGTDFTLNINRVEAEDVGIYFCMQTLQTPLTFGGGTKVEIK | 94.1 | 99.6 | 98.6 | 6.17 | 28.5 | 0.295 | 38 | 0.61 | 30.8 |  |  |
| H1M728N (antibody, V domains shown) VH: EVQLVESGGDLVQPGGSLRLSCTASGFTFSKYWMTWVRQAPGRGLEWVANIKEDGNEKYFLDSVKGRFTISRDNAKDLLFLQMNSLRGEDTAVYYCVRDRGIEVAGPFDYWGQGTLVTVSS VL: DIQMTQSPSTLSASVGDRVTVTCRASQTIINWLAWYQQKPGKAPKLLISKASSLESGVPSRFSGSGSGTEFTLTISSLQPDDFATYYCQQYNRYWTFGQGTMVEIK | 97.1 | 98.5 | 83.9 | 1.58 | 69.5 | 0.137 | 58.4 | 5.65 | 9.9 |  |  |
| H2M730N (antibody, V domains shown) VH: EVQLVESGGGLVQPGGSLRLSCAASGFAFRSYWMTWVRQAPGKGLEWVANIQQDGNDKYYVDSVKGRFTISRDNAKNSLYLQMNSLRAEDTAVYYCARDTGIAEAGPFDYWGQGTLVTVSS VL: DIQMTQSPSTLSASVGDRVSITCRASQTIISWLAWYQQKPGKAPRLLIYKASSLESGVPSRFSGSGSGTEFTLTINSLQPDDFATYYCQQYNRYWTFGQGTKVEIK | 97.3 | 98.9 | 55 | 0.842 | 36.6 | 0.21 | 47 |  |  |  |  |
